From patent US20250313605A1
*1 amine or outer side, *2 acyl side, *3 side chain or, on linkers, in order; H or OH if unused. Where no end group is shown, it is not given here. Side-chain parts run from the residue outwards. [ ]: non-standard residue; d: D form. The star is where a group is joined. C20 diacid = O=C(O)CCCCCCCCCCCCCCCCCCC(=O)*; γGlu = O=C(O)[C@H](CCC(=O)[*:2])N[*:1]; αMeL = CC(C)C[C@](C)(N)C(=O)O; αMeK = C[C@](N)(CCCCN)C(=O)O; AEEA = NCCOCCOCC(=O)O; Aib = CC(C)(N)C(=O)O

T1: human GLP-1 receptor (human), P43220
T1 chain: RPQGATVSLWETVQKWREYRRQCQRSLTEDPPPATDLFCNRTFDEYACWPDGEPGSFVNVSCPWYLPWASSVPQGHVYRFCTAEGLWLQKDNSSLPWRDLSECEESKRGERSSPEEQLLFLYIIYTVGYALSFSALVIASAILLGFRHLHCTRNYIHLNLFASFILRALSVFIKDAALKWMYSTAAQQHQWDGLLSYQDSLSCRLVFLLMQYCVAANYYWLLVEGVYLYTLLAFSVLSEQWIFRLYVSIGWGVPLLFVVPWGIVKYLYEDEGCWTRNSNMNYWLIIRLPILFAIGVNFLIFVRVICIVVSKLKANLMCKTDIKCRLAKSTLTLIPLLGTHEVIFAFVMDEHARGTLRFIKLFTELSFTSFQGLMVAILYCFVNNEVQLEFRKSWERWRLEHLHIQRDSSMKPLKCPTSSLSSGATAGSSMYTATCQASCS

T2: human GIP receptor (human), P48546
T2 chain: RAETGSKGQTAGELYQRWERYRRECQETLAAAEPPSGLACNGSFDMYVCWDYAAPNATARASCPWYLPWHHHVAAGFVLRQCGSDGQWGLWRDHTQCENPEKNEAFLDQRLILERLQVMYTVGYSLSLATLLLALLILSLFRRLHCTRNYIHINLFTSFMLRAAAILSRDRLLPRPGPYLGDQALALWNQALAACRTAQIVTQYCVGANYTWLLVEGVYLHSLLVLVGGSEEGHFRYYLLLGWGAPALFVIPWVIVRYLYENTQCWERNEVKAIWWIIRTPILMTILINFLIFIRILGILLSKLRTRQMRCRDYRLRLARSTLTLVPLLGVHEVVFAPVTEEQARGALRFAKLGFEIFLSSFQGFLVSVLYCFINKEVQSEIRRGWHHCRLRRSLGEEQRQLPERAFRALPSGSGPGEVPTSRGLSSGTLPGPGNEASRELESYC

B1: Example 18 (peptide)
peptide: Y[Aib]QGTFTSDYSILLDKK([AEEA-γGlu-C20 diacid])AQ[Aib]AFIEYLLEGGPSSGAPPPS-NH2
B2: Example 3 (peptide)
peptide: Y[Aib]QGTFTSDYSI[αMeL]LDKK([AEEA-AEEA-γGlu-C20 diacid])AQ[αMeK]AFIEYLLEGGPSSGAPPPS-NH2
B3: Example 20 (peptide)
peptide: Y[Aib]QGTFTSDYSILLDKK([AEEA-γGlu-C20 diacid])AQ[Aib]AFIEYLLE[Aib]GPSSGAPPPS-NH2
modifications: N-terminus assumed
SMILES: CC[C@H](C)[C@H](NC(=O)[C@H](Cc1ccccc1)NC(=O)[C@H](C)NC(=O)C(C)(C)NC(=O)[C@H](CCC(N)=O)NC(=O)[C@H](C)NC(=O)[C@H](CCCCNC(=O)COCCOCCNC(=O)CC[C@H](NC(=O)CCCCCCCCCCCCCCCCCCC(=O)O)C(=O)O)NC(=O)[C@H](CCCCN)NC(=O)[C@H](CC(=O)O)NC(=O)[C@H](CC(C)C)NC(=O)[C@H](CC(C)C)NC(=O)[C@@H](NC(=O)[C@H](CO)NC(=O)[C@H](Cc1ccc(O)cc1)NC(=O)[C@H](CC(=O)O)NC(=O)[C@H](CO)NC(=O)[C@@H](NC(=O)[C@H](Cc1ccccc1)NC(=O)[C@@H](NC(=O)CNC(=O)[C@H](CCC(N)=O)NC(=O)C(C)(C)NC(=O)[C@@H](N)Cc1ccc(O)cc1)[C@@H](C)O)[C@@H](C)O)[C@@H](C)CC)C(=O)N[C@@H](CCC(=O)O)C(=O)N[C@@H](Cc1ccc(O)cc1)C(=O)N[C@@H](CC(C)C)C(=O)N[C@@H](CC(C)C)C(=O)N[C@@H](CCC(=O)O)C(=O)NC(C)(C)C(=O)NCC(=O)N1CCC[C@H]1C(=O)N[C@@H](CO)C(=O)N[C@@H](CO)C(=O)NCC(=O)N[C@@H](C)C(=O)N1CCC[C@H]1C(=O)N1CCC[C@H]1C(=O)N1CCC[C@H]1C(=O)N[C@@H](CO)C(N)=O
B4: Example 15 (peptide)
peptide: Y[Aib]QGTFTSDYSILLDKK([AEEA-AEEA-γGlu-C20 diacid])AQ[Aib]AFIEYLLA[Aib]GPSSGAPPPS-NH2
modifications: N-terminus assumed
SMILES: CC[C@H](C)[C@H](NC(=O)[C@H](Cc1ccccc1)NC(=O)[C@H](C)NC(=O)C(C)(C)NC(=O)[C@H](CCC(N)=O)NC(=O)[C@H](C)NC(=O)[C@H](CCCCNC(=O)COCCOCCNC(=O)COCCOCCNC(=O)CC[C@H](NC(=O)CCCCCCCCCCCCCCCCCCC(=O)O)C(=O)O)NC(=O)[C@H](CCCCN)NC(=O)[C@H](CC(=O)O)NC(=O)[C@H](CC(C)C)NC(=O)[C@H](CC(C)C)NC(=O)[C@@H](NC(=O)[C@H](CO)NC(=O)[C@H](Cc1ccc(O)cc1)NC(=O)[C@H](CC(=O)O)NC(=O)[C@H](CO)NC(=O)[C@@H](NC(=O)[C@H](Cc1ccccc1)NC(=O)[C@@H](NC(=O)CNC(=O)[C@H](CCC(N)=O)NC(=O)C(C)(C)NC(=O)[C@@H](N)Cc1ccc(O)cc1)[C@@H](C)O)[C@@H](C)O)[C@@H](C)CC)C(=O)N[C@@H](CCC(=O)O)C(=O)N[C@@H](Cc1ccc(O)cc1)C(=O)N[C@@H](CC(C)C)C(=O)N[C@@H](CC(C)C)C(=O)N[C@@H](C)C(=O)NC(C)(C)C(=O)NCC(=O)N1CCC[C@H]1C(=O)N[C@@H](CO)C(=O)N[C@@H](CO)C(=O)NCC(=O)N[C@@H](C)C(=O)N1CCC[C@H]1C(=O)N1CCC[C@H]1C(=O)N1CCC[C@H]1C(=O)N[C@@H](CO)C(N)=O
B5: Example 16 (peptide)
peptide: Y[Aib]QGTFTSDYSILLDKK([AEEA-AEEA-γGlu-C20 diacid])AQ[Aib]AFIEYLLEGGPSSGAPPPS-NH2
B6: Example 19 (peptide)
peptide: Y[Aib]QGTFTSDYSILLDKK([AEEA-γGlu-γGlu-C20 diacid])AQ[Aib]AFIEYLLE[Aib]GPSSGAPPPS-NH2
modifications: N-terminus assumed
SMILES: CC[C@H](C)[C@H](NC(=O)[C@H](Cc1ccccc1)NC(=O)[C@H](C)NC(=O)C(C)(C)NC(=O)[C@H](CCC(N)=O)NC(=O)[C@H](C)NC(=O)[C@H](CCCCNC(=O)COCCOCCNC(=O)CC[C@H](NC(=O)CC[C@H](NC(=O)CCCCCCCCCCCCCCCCCCC(=O)O)C(=O)O)C(=O)O)NC(=O)[C@H](CCCCN)NC(=O)[C@H](CC(=O)O)NC(=O)[C@H](CC(C)C)NC(=O)[C@H](CC(C)C)NC(=O)[C@@H](NC(=O)[C@H](CO)NC(=O)[C@H](Cc1ccc(O)cc1)NC(=O)[C@H](CC(=O)O)NC(=O)[C@H](CO)NC(=O)[C@@H](NC(=O)[C@H](Cc1ccccc1)NC(=O)[C@@H](NC(=O)CNC(=O)[C@H](CCC(N)=O)NC(=O)C(C)(C)NC(=O)[C@@H](N)Cc1ccc(O)cc1)[C@@H](C)O)[C@@H](C)O)[C@@H](C)CC)C(=O)N[C@@H](CCC(=O)O)C(=O)N[C@@H](Cc1ccc(O)cc1)C(=O)N[C@@H](CC(C)C)C(=O)N[C@@H](CC(C)C)C(=O)N[C@@H](CCC(=O)O)C(=O)NC(C)(C)C(=O)NCC(=O)N1CCC[C@H]1C(=O)N[C@@H](CO)C(=O)N[C@@H](CO)C(=O)NCC(=O)N[C@@H](C)C(=O)N1CCC[C@H]1C(=O)N1CCC[C@H]1C(=O)N1CCC[C@H]1C(=O)N[C@@H](CO)C(N)=O
B7: Example 17 (peptide)
peptide: Y[Aib]QGTFTSDYSILLDKK([AEEA-AEEA-γGlu-C20 diacid])AQ[Aib]AFIEYLLE[Aib]GPSSGAPPPS-NH2
modifications: N-terminus assumed
SMILES: CC[C@H](C)[C@H](NC(=O)[C@H](Cc1ccccc1)NC(=O)[C@H](C)NC(=O)C(C)(C)NC(=O)[C@H](CCC(N)=O)NC(=O)[C@H](C)NC(=O)[C@H](CCCCNC(=O)COCCOCCNC(=O)COCCOCCNC(=O)CC[C@H](NC(=O)CCCCCCCCCCCCCCCCCCC(=O)O)C(=O)O)NC(=O)[C@H](CCCCN)NC(=O)[C@H](CC(=O)O)NC(=O)[C@H](CC(C)C)NC(=O)[C@H](CC(C)C)NC(=O)[C@@H](NC(=O)[C@H](CO)NC(=O)[C@H](Cc1ccc(O)cc1)NC(=O)[C@H](CC(=O)O)NC(=O)[C@H](CO)NC(=O)[C@@H](NC(=O)[C@H](Cc1ccccc1)NC(=O)[C@@H](NC(=O)CNC(=O)[C@H](CCC(N)=O)NC(=O)C(C)(C)NC(=O)[C@@H](N)Cc1ccc(O)cc1)[C@@H](C)O)[C@@H](C)O)[C@@H](C)CC)C(=O)N[C@@H](CCC(=O)O)C(=O)N[C@@H](Cc1ccc(O)cc1)C(=O)N[C@@H](CC(C)C)C(=O)N[C@@H](CC(C)C)C(=O)N[C@@H](CCC(=O)O)C(=O)NC(C)(C)C(=O)NCC(=O)N1CCC[C@H]1C(=O)N[C@@H](CO)C(=O)N[C@@H](CO)C(=O)NCC(=O)N[C@@H](C)C(=O)N1CCC[C@H]1C(=O)N1CCC[C@H]1C(=O)N1CCC[C@H]1C(=O)N[C@@H](CO)C(N)=O

Biological target: T1, human GLP-1 receptor (human), P43220
Experiment: cell-based or functional assay

| Binder | cAMP EC50 (0.1% casein) | cAMP EC50 (FBS and BSA present) |
| --- | --- | --- |
| B1 | 0.141 nM | 16.1 nM |
| B2 | 0.107 nM | – |
| B3 | 0.149 nM | 20.6 nM |
| B4 | 0.253 nM | 10.7 nM |
| B5 | 0.157 nM | 19 nM |
| B6 | 0.143 nM | 24.4 nM |
| B7 | 0.153 nM | 18.4 nM |

Biological target: T2, human GIP receptor (human), P48546
Experiment: cell-based or functional assay

| Binder | cAMP EC50 (0.1% casein) | cAMP EC50 (FBS and BSA present) |
| --- | --- | --- |
| B1 | 0.123 nM | 5.89 nM |
| B2 | 0.0376 nM | 1.91 nM |
| B3 | 0.0572 nM | 3.7 nM |
| B4 | 0.0689 nM | 1.47 nM |
| B5 | 0.114 nM | 4.37 nM |
| B6 | 0.0455 nM | 3.13 nM |
| B7 | 0.0439 nM | 2.38 nM |

biological target: human glucagon receptor (human), P47871; experiment: cell-based or functional assay
Sequence (P47871 26-477): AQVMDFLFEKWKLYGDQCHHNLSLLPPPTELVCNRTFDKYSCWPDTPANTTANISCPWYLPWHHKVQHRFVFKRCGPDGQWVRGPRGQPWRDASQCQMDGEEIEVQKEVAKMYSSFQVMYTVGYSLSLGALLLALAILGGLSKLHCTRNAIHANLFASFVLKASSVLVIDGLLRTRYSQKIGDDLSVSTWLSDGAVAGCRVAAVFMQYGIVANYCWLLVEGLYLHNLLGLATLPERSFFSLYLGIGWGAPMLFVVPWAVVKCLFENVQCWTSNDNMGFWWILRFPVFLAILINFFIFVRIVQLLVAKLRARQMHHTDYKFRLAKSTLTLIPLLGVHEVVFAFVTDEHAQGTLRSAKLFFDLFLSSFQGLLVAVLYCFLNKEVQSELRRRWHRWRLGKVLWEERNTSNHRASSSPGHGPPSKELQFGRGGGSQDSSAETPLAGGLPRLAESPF

| Binder | cAMP EC50 (0.1% casein) | cAMP EC50 (FBS and BSA present) |
| --- | --- | --- |
| B1 | 0.0861 nM | 5.71 nM |
| B2 | 0.152 nM | 8.03 nM |
| B3 | 0.0641 nM | 3.97 nM |
| B4 | 0.131 nM | 5.92 nM |
| B5 | 0.174 nM | 13.2 nM |
| B6 | 0.0874 nM | 8.45 nM |
| B7 | 0.135 nM | 8.05 nM |

Biological target: T1, human GLP-1 receptor (human), P43220
Experiment: radioligand competition SPA, HEK293 membranes

| Binder | Ki |
| --- | --- |
| B1 | 8.06 nM |
| B2 | 6.06 nM |
| B3 | 9.23 nM |
| B4 | 5.8 nM |
| B5 | 16.1 nM |
| B6 | 12 nM |
| B7 | 10.2 nM |

Biological target: T2, human GIP receptor (human), P48546
Experiment: radioligand competition SPA, HEK293 membranes

| Binder | Ki |
| --- | --- |
| B1 | 0.0835 nM |
| B2 | 0.0446 nM |
| B3 | 0.109 nM |
| B4 | 0.0972 nM |
| B5 | 0.106 nM |
| B6 | 0.0789 nM |
| B7 | 0.0895 nM |

biological target: human glucagon receptor (human), P47871; experiment: radioligand competition SPA, HEK293 membranes

| Binder | Ki |
| --- | --- |
| B1 | 5.71 nM |
| B2 | 12 nM |
| B3 | 3.76 nM |
| B4 | 4.56 nM |
| B5 | 11.5 nM |
| B6 | 5.2 nM |
| B7 | 5.81 nM |
